From the supplement of paper PMC9732359
± gives the uncertainty stated by the source.

Experiment: protein stability index of a GFP-peptide fusion (yeast GPS) (PSI 1-4); higher = more stable; sorted into four equal gates, so the index is relative within each strain
Outline: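 Tiled 17-residue peptides from yeast proteins were fused downstream of GFP on a plasmid that also expresses Cherry, and the pooled library was carried in yeast. Mid-log cultures grown in leucine-free medium were sorted into four equal gates by GFP/Cherry fluorescence ratio. Plasmids from each gate were PCR-amplified and Illumina-sequenced, and reads were assigned to strains by barcodes. Each peptide's protein stability index is the sum, over gates, of the gate's read frequency multiplied by its gate number.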

| Sequence | protein stability index (doa10∆) | protein stability index (pdr5∆) | protein stability index (san1∆) | protein stability index (ubr1∆) |
| --- | --- | --- | --- | --- |
| LPLISTDVLEISKQRTF [YMR129W/POM152] | 2.17 ± 0.068 | 2.74 ± 0.06 | 2.46 ± 0.062 | 2.51 ± 0.049 |
| EVDSASDFISKLEYPHT [RPN3] | 2.96 ± 0.087 | 3.09 ± 0.087 | 2.93 ± 0.075 | 3.02 ± 0.079 |
| QCPVKSAEDQLYAITFR [QCR2] | 3.14 ± 0.12 | 2.83 ± 0.25 | 3.13 ± 0.14 | 3.09 ± 0.16 |
| AFFREKGLVSQQLDSFN [RPB2] | 3.11 ± 0.13 | 3.17 ± 0.19 | 2.96 ± 0.1 | 2.97 ± 0.087 |
| ELKYQRSLRATAEERVG [RPL15A] | 1.27 ± 0.083 | 1.48 ± 0.11 | 1.67 ± 0.19 | 1.09 ± 0.054 |
| FSAPIRPDIVHTVFTSV [RPL4A] | 1.7 ± 0.056 | 2.07 ± 0.057 | 1.73 ± 0.094 | 2.16 ± 0.056 |
| YLNSRIIPTTLEEQQQL [YML103C/NUP188] | 1.97 ± 0.039 | 2.04 ± 0.042 | 1.82 ± 0.071 | 2.13 ± 0.052 |
| PQINILQPIKGESARRF [RPC40] | 2.17 ± 0.096 | 2.58 ± 0.1 | 2.43 ± 0.12 | 2.88 ± 0.12 |
| SGTAATGAASNQSSFNF [YOR098C/NUP1] | 2.7 ± 0.072 | 3.01 ± 0.09 | 2.68 ± 0.12 | 3.07 ± 0.053 |
| FEGNVATKAINGCIFTL [PRP8] | 2.57 ± 0.068 | 2.32 ± 0.049 | 1.97 ± 0.053 | 2.71 ± 0.05 |
| NLTIHFGGEKGKRIREN [FAS1] | 3.39 ± 0.1 | 3.01 ± 0.18 | 3.05 ± 0.092 | 3.31 ± 0.075 |
| MQQAQFQAQQAQQAQQA [SNF2] | 2.56 ± 0.043 | 2.86 ± 0.039 | 2.62 ± 0.032 | 2.53 ± 0.032 |
| IVHDDPASDDILDNINH [ITC1] | 2.98 ± 0.072 | 3.02 ± 0.062 | 3.04 ± 0.09 | 3.25 ± 0.058 |
| KQEIREAVELPLVQADL [RPT3] | 3.2 ± 0.13 | 2.81 ± 0.22 | 3.43 ± 0.12 | 2.96 ± 0.17 |
| NKFMSIFLKRKDFTNKN [SRB8] | 2.38 ± 0.067 | 2.2 ± 0.082 | 3.03 ± 0.058 | 2.58 ± 0.065 |
| VRNTAPNIRELGVKNLG [YCG1] | 2.88 ± 0.2 | 3.29 ± 0.22 | – | 2.98 ± 0.13 |
| VHNTNSFIISSLDTLEL [NUT1] | 2 ± 0.076 | 2.34 ± 0.067 | 1.99 ± 0.086 | 2.54 ± 0.07 |
| DVVAHRQLAGAIGYEPL [DIS3] | 2.65 ± 0.074 | 2.43 ± 0.075 | 1.88 ± 0.15 | 2.19 ± 0.11 |
| NESWKSSFEKFNDSQAI [SRP72] | 2.96 ± 0.055 | 2.96 ± 0.059 | 2.79 ± 0.043 | 3.02 ± 0.037 |
| MFTQIYLERIELSFYIL [YML103C/NUP188] | 1.66 ± 0.1 | 1.46 ± 0.074 | 1.36 ± 0.1 | 1.75 ± 0.12 |
| DQVLVKGGEQISQLYSD [YJL041W/NSP1] | 3.18 ± 0.091 | 3.16 ± 0.082 | 3.2 ± 0.061 | 3.16 ± 0.091 |
| KVIEEQLKHTKLALAEN [SMC4] | 1.89 ± 0.12 | 1.78 ± 0.1 | 1.32 ± 0.15 | 2.23 ± 0.098 |
| EAELSSTKVENSAIIQN [YIL149C/MLP2] | 2.77 ± 0.11 | 2.87 ± 0.069 | 2.98 ± 0.056 | 3.13 ± 0.062 |
| EEEESILIAMQPEDLEP [RPB2] | – | – | 2.33 ± 0.13 | – |
| GVFDPASYAKYLIDHIK [RPL22A] | 2.73 ± 0.25 | – | 3.35 ± 0.16 | – |
| WKEVMFDPSKDVLINEL [CDC53] | 2.41 ± 0.074 | 1.87 ± 0.052 | 1.8 ± 0.12 | 1.91 ± 0.073 |

| Sequence | protein stability index (doa10∆) | protein stability index (pdr5∆) | protein stability index (san1∆) | protein stability index (ubr1∆) |
| --- | --- | --- | --- | --- |
| FSSSVSLSYMAFPNASK [RRP40] | 1.65 ± 0.078 | 1.76 ± 0.074 | 1.65 ± 0.12 | 1.72 ± 0.072 |
| FEWDISNSDNCPEEFAE [SNF5] | 3.12 ± 0.11 | 3.19 ± 0.15 | 3.11 ± 0.1 | 3.29 ± 0.072 |
| NVTQNEQQWITRAQYLA [SRP68] | 1.42 ± 0.08 | 1.54 ± 0.072 | 1.19 ± 0.13 | 1.28 ± 0.064 |
| QSKIDLTKKKNEEINKK [SEM1] | – | 3.47 ± 0.24 | 2.87 ± 0.14 | 3.21 ± 0.076 |
| GGLGLNLQTADTVIIFD [SNF2] | 3.18 ± 0.12 | 3.22 ± 0.1 | 3.34 ± 0.13 | 3.38 ± 0.07 |
| DPNLELDQVGVPKSIAK [RPO21] | 3.48 ± 0.23 | 3.18 ± 0.14 | 2.44 ± 0.25 | 3.11 ± 0.16 |
| SMATPTHSDSHEDMKRR [ROX3] | 2.77 ± 0.11 | 2.94 ± 0.11 | 2.53 ± 0.091 | 2.73 ± 0.04 |
| PMDAYLKLNHIIANINS [SNU114] | 1.26 ± 0.078 | 2.59 ± 0.085 | 1.97 ± 0.22 | 2.4 ± 0.097 |
| VKPISIEAPQFYRYWSA [SWI3] | 2.23 ± 0.036 | 2.09 ± 0.036 | 1.85 ± 0.055 | 2.02 ± 0.032 |
| NPDDDYGFKQEIFDVTS [FAS1] | 3.38 ± 0.25 | 3.45 ± 0.11 | 3.17 ± 0.1 | 3.31 ± 0.055 |
| NTGGESVVKKEDNKYAI [RGR1] | 3.51 ± 0.1 | 3.39 ± 0.1 | 3.33 ± 0.094 | 3.4 ± 0.085 |
| EKIMENKYPELLGKDNE [AAR2] | 3.04 ± 0.073 | 3.24 ± 0.062 | 3.24 ± 0.039 | 2.96 ± 0.045 |
| VTKETVHPRKSYKMNSS [PRP8] | 3.03 ± 0.11 | 3.02 ± 0.086 | 2.96 ± 0.048 | 2.9 ± 0.065 |
| NAPTFNPKYDTSNASMN [YAR002W/NUP60] | 3.01 ± 0.046 | 3.08 ± 0.043 | 2.9 ± 0.036 | 3.17 ± 0.046 |
| SGPFKVNGVPLRRVNAR [RPL6A] | 2.67 ± 0.25 | 2.84 ± 0.2 | 2.96 ± 0.24 | 2.77 ± 0.075 |
| ERSLAVKYINFGKTVKD [RPC31] | 3.09 ± 0.088 | 3.18 ± 0.1 | 2.99 ± 0.046 | 2.88 ± 0.058 |
| KKEKLKQENSTLLKKAN [RPC82] | 2.3 ± 0.074 | 2.81 ± 0.093 | 2.71 ± 0.12 | 2.85 ± 0.075 |
| VHPIPDVAFADGGKTLR [YMR129W/POM152] | 2.5 ± 0.064 | 2.68 ± 0.086 | 2.66 ± 0.084 | 2.63 ± 0.051 |
| AENDVIEATDLGNIASS [BRR2] | 3.05 ± 0.075 | 3.17 ± 0.086 | 3.19 ± 0.064 | 3.27 ± 0.056 |
| VSNIEGILDEIMFNHAR [RGR1] | 2.77 ± 0.054 | 2.53 ± 0.053 | 2.46 ± 0.065 | 2.99 ± 0.031 |
| GLFQVLHNFESVAPTKQ [NUT1] | 2.99 ± 0.075 | 2.87 ± 0.075 | 2.75 ± 0.052 | 3.12 ± 0.035 |
| APSIGRWYQLIATGCKD [YGL100W/SEH1] | 1.52 ± 0.089 | 1.65 ± 0.068 | 1.64 ± 0.11 | 2.17 ± 0.071 |
| MVALISKKRKLVADGVF [RPS3] | – | 1.85 ± 0.18 | 1.53 ± 0.13 | – |
| FMDEIDSIGSTRVEGSG [RPT6] | 2.57 ± 0.076 | 2.56 ± 0.12 | 2.84 ± 0.069 | 2.46 ± 0.073 |
| KDLVEIKKEEGKIDEAA [RPN5] | – | – | – | 3.62 ± 0.22 |
| TLLVIRRLHKVLRPFLL [SNF2] | 1.26 ± 0.12 | 1.34 ± 0.093 | 1.34 ± 0.16 | 1.09 ± 0.08 |
